Values of other authors in paper PMC7687576 (In Vitro Cellular & Developmental Biology. Animal, 2020).

Columns and labels:
EpiIntestinal tissues = conditions: IL-6 5–20 ng/mL for 72 h; ref Simon et al. [2019]
CYP3A4 [1] = conditions: EpiIntestinal tissues; ref Cui et al. [2020]
CYP3A4 [2] = conditions: Caco-2 cultures; ref Cui et al. [2020]

| Compound | decrease in CYP450 activity level (EpiIntestinal tissues) | reduction of CYP450 mRNA expression (CYP2C19, CYP2C9, CYP3A4) (EpiIntestinal tissues) | amount of 1-hydroxymidazolam (CYP3A4-selective metabolite) detected (CYP3A4 [1]) | amount of 1-hydroxymidazolam metabolite detected (CYP3A4 [2]) |
| --- | --- | --- | --- | --- |
| IL-6: pro-inflammatory cytokine IL-6 | 20–75% | 40–50% | – | – |
| Cc1ncc2n1-c1ccc(Cl)cc1C(c1ccccc1F)=NC2 [Midazolam] | – | – | substantial amount | negligible amount |
